Laboratory results reported in the DeepSol protein solubility set.

Test: soluble on expression in E. coli; label from the status in PepcDB or PDB records

Sequence | soluble on expression in E. coli
MPGLPEVAPGDDLAKLIAAVEPGLVDGDVLLVTSKIVSKAEGRIVRADDREAAIDAETVRVVARRGALRIVENRQGLVMAAAGVDASNTPSGTVLLLPEDPDASARAIRDGLRDTLGVDVGVVVTDTFGRPWRTGLTDVAIGAAGVRVLDDLRGGTDAYGNPLSATVVATADELAAAGDLVKGKAAGLPVAVVRGLPHVIAGDDEAGARAMVRGGRDDMFRLGTSEAVREAVTQRRTVRAFTDEPVDPGAVRRAVAAAVTAPAPHHTTPWRFVLLESAESRTRLLDAMRDAWIADLRGDRKTEESIAKRVRRGDVLRNAPYLVVPCMVMDGSHSYGDARRDAAEREMFVVATGAGVQNFLVALAGERLGSAWVSSTMFCRDVVRRALGLPESWEPMGAVAVGHAAEEPRDRPARDAGAFIEVRLEHHHHHH | soluble
MPGTKQVNVGSLKVGQYVMIDGVPCEIVDISVSKPGKHGGAKARVVGIGIFEKVKKEFVAPTSSKVEVPIIDRRKGQVLAIMGDMVQIMDLQTYETLELPIPEGIEGLEPGGEVEYIEAVGQYKITRVIGGK | soluble
MPIPNNPGAGENAFDPVFVKDDDGYDLDSFMIPAHYKKYLTKVLVPNGVIKNRIEKLARDVMKEMGGHHIVALCVLKGGYKFFADLLDYIKALNRNSDRSIPMTVDFIRLKSYCNDQSTGDIKVIGGDDLSTLTGKNVLIVEDIIDTGKTMQTLLSLVRQYNPKMVKVACLFIKRTPLWNGFKADFVGFSIPDHFVVGYSLDYNEIFRDLDHCCLVNDEGKKKYKATSL | soluble
MPIRGFHYRGDEAIYPASVVKLFYLVAALEWLQQGMIQPSAELDRALRDMIVDSSNDATGYIVDLLSGTTSGPELGDGPFKTWQFQRNIVNRYYQSLMWPELQPINVNQKTWGDGPYGRERAFYGPEFENRNKLTTNATARLLHAIAGGVAVSPSASQRMLNLLNRPFDPRSLAEDPENQVTGFLGQDLPQGSQLWSKAGWMSRVRHDAAYLEIPGLPPHLLVAFTEGKEHANNEAILPFIAQQVRQQLQPALEHHHHHH | not soluble
MPIRHCIVHLIEKKPDGTPAVLHARDSELAESQAIENMLADLNESYNAKQGKAWGLFHPESGAHPFSGWLKEYLDGGKDFTAFSRVSVEHLQKLMEESNLSVGGHVLFAHYQQGMTDYLAIALLHHSDGVAVNAELDVTPSRHLDLGQLHLAARINISEWQNNKQSKQYISFIKGKNGKKVSEYFRDFIGCQEGVDGPGETRTLLKAFSDFVESEDLPEESAREKTKTLIDYASSQSKMGEPMGLEALSELIDENQPRAFYDHIRNKDYGLSPEIPADKRTLNQFRRFTGRAEGLSISFEAHLLGDKIEYDETAGTLIIKGLPTQLTDQLKRRLEHHHHHH | not soluble
MPISEPTWAELPFLFKSAVVELLPYKNRCCLRKCSKSDQFLVDSTPNHLHDVAIHTCENYTVFTYSDSPDTVFTLKYFKNIGENDLKIEYSESPVLFVPGKNQKFIFKTSIHVENLASEADDVDFALDDFKLLLNRLNCKKSIINMIPNQYNPIAHPDRTIEFRQRLLDLMTSSFPKKSIKSKSLVIHWHQETQEIAEILQVFHTKTLKNLEFHDRNATWHMAPIIGTEQWKGARSVLLEHLSDVKIEELKDFNEIQMHVRDSGEQELWTVIQNFIRKNLHGSSFHFTYRQAEPNVDRILATFNVPPRDEPITARTRLRSVLGSRFIHTQRFQMPSTDLILVVMISEKEVMGTVCHVDQVNVEAKVERGLLR | not soluble
MPKAKAKTKNTEIISPHHYVYPNTTTLKNKYGIKNLNAFLEKCSHDTAKAMINLREESLPEYFDTAYLCHIHQQLFKNTFEWAGYLRHIPFTFADGTTAAMPEMKRTGWKNAFAIGDEIQEGLQRLDQTLAEKNNLQGLTREEFNSEAIELFNSLNQLHPFREGNGRTQRLFFENLAKAAGHQLNFSLITKERMMVASVAVAENGDLEPMQHLFEDISNPEKIRLLKEFMHTMKNTGRNVNDRPVMVAKEGETYTGTYRGAGLEGFALNVKGAYIIGNIDHLPPEQLKILKPGDKITFTAPK | soluble
MPKGNKKPNEKKEELEKFAKELQGSDSDEDAVVIEQPTVEPKLPQNDSSSSNKIVLSQAEKDLLRTELDKTEEEISTLKQVLSARQKHAAELKRKLGLTPFSELSQDINRSLKTVTDTDAYQKTAEVAAATSDTVKEKWNDMRNSSLFKSFESKLGSALNNAKMAASTSIDHLAGAARGPSQTGTPVAEEAKPIS | soluble
MPKILWKSLHLCFPSNLTKCYSSPCIPPSSADPDGIIQPNRPSIVLLNNFNLLYHNDNHHHPHRVIDLPSSSTTTTPAATSSSSTSSYESDISPDVSAAFASRRFFFSSPGRSNAITDSPEPRSREFSDNYDDATITSTKKKKKKVYDNSVTTTTTRLISGGTAVTQHVDSPDPLTDFRRSMQEMIDAAIDAGELSRDPNDGYDFLDELLLTYLSLNPADTHKFVIRAFSDILVSLLSEERRIC | soluble
MPKKTFENLEDSHGKDVNIPVELPKRKREVTPENLPSTSSTAPTQKRKSLGYSGRTEEPKNIHKTFISPFSTSVSPSKQGLRRRKKALPAIEPPVSVEEASPLRFVNIDVFSRRMASESSDHDAMIAKLLSRKFSIPMEGYMLSGRSLGLGGNRRKCALFDPYHEGALILYAPEHLSEHAQLKEDKDRKVHVVADPVVGKILRPHQRDGVKFMWDCVTGINIPEFHGCIMADEMGLGKTLQCISLLWTLLRQSPDACPTVSKSIIVCPSSLVKNWDKEIKKWLGTRLNAMPVDSGKREQIIACLNSFMADSKMRCAIPVLIISYETFRLYANILHSGDVGIVICDEGHRLKNSENLTYQALSGLKCARRVLISGTPIQNDLLEYFSLVNFVNPGLLGTASEFRKKFENAILKGRDADASSEDQKKGEEKTKEMISLVEKCIIRRTSALLTKYLPVKYEHIICCKNSTLQETLYNKLIECEKQNRIVEKDKGATASALSFITHLKKLCNHPYLVYDEFQKPDNRFRNKCLSIFPESFNPKSFDPSFSGKMKVLDYILAVTRKTTDDKFVLVSNYTQTIDQFMELCKLRGYDFVRLDGSMSIKQRSKIVDTFNDPASTIFCFLLSSKAGGCGLNLIGANRLVMFDPDWNPANDDQAMARVWRDGQKKMCFIYRLLATGSIEEKMFQRQTHKKALSSCVVDAGEDVARHFSSEQLRELFKLESTVASDTHEKLKCKRCIQGVESVDPPTNADCASDLSNWFHSQKSARKVADNVLRAVFECGSISFVFHQKSHNVEVKKVQEKVEEVDEDYVPSEAEENDD | soluble
MPKLVTWMNNQRVGELTKLANGAHTFKYAPEWLASRYARPLSLSLPLQRGNITSDAVFNFFDNLLPDSPIVRDRIVKRYHAKSRQPFDLLSEIGRDSVGAVTLIPEDETVTHPIMAWEKLTEARLEEVLTAYKADIPLGMIREENDFRISVAGAQEKTALLRIGNDWCIPKGITPTTHIIKLPIGEIRQPNATLDLSQSVDNEYYCLLLAKELGLNVPDAEIIKAGNVRALAVERFDRRWNAERTVLLRLPQEDMCQTFGLPSSVKYESDGGPGIARIMAFLMGSSEALKDRYDFMKFQVFQWLIGATDGHAKNFSVFIQAGGSYRLTPFYDIISAFPVLGGTGIHISDLKLAMGLNASKGKKTAIDKIYPRHFLATAKVLRFPEVQMHEILSDFARMIPAALDNVKTSLPTDFPENVVTAVESNVLRLHGRLSREYGSKLEHHHHHH | soluble
MPKPYVAINMAELKNEPKTFEMFASVGPKVCMVTARHPGFVGFQNHIQIGILPFGNRYGGAKMDMTKESSTVRVLQYTFWKDWKDHEEMHRQNWSYLFRLCYSCASQMIWGPWEPIYEIIYANMPINTEMTDFTAVVGKKFAEGKPLDIPVISQPYGKRVVAFAEHSVIPGKEKQFEDAIVRTLEMLKKAPGFLGAMVLKEIGVSGIGSMQFGAKGFHQVLENPGSLEPDPNNVMYSVPEAKNTPQQYIVHVEWANTDALMFGMGRVLLYPELRQVHDEVLDTLVYGPYIRILNPMMEGTFWREYLNEQAWRHPQFGG | soluble
MPKRIVYNISSDFQLKSLLGEGAYGVVCSATHKPTGEIVAIKKIEPFDKPLFALRTLREIKILKHFKHENIITIFNIQRPDSFENFNEVYIIQELMQTDLHRVISTQMLSDDHIQYFIYQTLRAVKVLHGSNVIHRDLKPSNLLINSNCDLKVCDFGLARIIDESAADNSEPTGQQSGMVEFVATRWYRAPEVMLTSAKYSRAMDVWSCGCILAELFLRRPIFPGRDYRHQLLLIFGIIGTPHSDNDLRCIESPRAREYIKSLPMYPAAPLEKMFPRVNPKGIDLLQRMLVFDPAKRITAKEALEHPYLQTYHDPNDEPEGEPIPPSFFEFDHYKEALTTKDLKKLIWNEIFS | soluble
MPKTISVRVTTMDAELEFAIQPNTTGKQLFDQVVKTIGLREVWFFGLQYQDTKGFSTWLKLNKKVTAQDVRKESPLLFKFRAKFYPEDVSEELIQDITQRLFFLQVKEGILNDDIYCPPETAVLLASYAVQSKYGDFNKEVHKSGYLAGDKLLPQRVLEQHKLNKDQWEERIQVWHEEHRGMLREDAVLEYLKIAQDLEMYGVNYFSIKNKKGSELWLGVDALGLNIYEQNDRLTPKIGFPWSEIRNISFNDKKFVIKPIDKKAPDFVFYAPRLRINKRILALCMGNHELYMRRRKP | soluble
MPKWISIDEAAHKYGVKEEDICLWAEMEAITAYFTETTLIIDEKSLQKFMYLRKNLPTTGYIRTLEQLCINQSEVCKLYMEVIELQEKDLQYKKRRISVLERQYAMATKQNKLREKIITITSDMLSKAESGWWEKLWMKISNRQKL | not soluble
MPLEASELKPTAGPLEASELKPTAGPLEASELKPTAGPLEASELKPTAGPLEASELKPTAGPLEASELKPTAGPLEASELKPTAGMKLKGRGIVKGVAEGELVVSRKPLSFLGGVDPNTGIITDPESDIQGEKITGKILAFPRGKGSTVGSYVIYALAKKGTGPKAIIVEEAEAIVAVGAIIAGIPLVTGIDISKLKSGMKVRVDGERGEVEIIAQGDLLEHHHHHH | not soluble
MPLEEGVLIDCTLGLGGHSKALLSQKPHLKLIGIDKDKFAQEIAKERLKAFEGRYNLLSGGFAKRFKEALETHNKEIKGVLVDLGVSSLQLDDDNRGFNFHSHTLDMRMDLESELNAQKVINSYPIVALEKIFRDYGEIKEYKKIAHKIAERRAKKPFKNAKDLSEFLSSFSKNKKIHPATLVFQAVRIEVNSELEELKEFLQCARNLKGAILCVISFHSLEDALVKNAFKDYAKNCICDPSSFKCACSNNHALGEILTKKPITPSPEEIKNNRRSRSAKMRVFQFKPLEHHHHHH | not soluble
